Assay results from the supplement of paper PMC9170038.

Test system: MS2 coat protein
Assay: apparent KD of MS2 coat protein; designed switch direction (-1 OFF switch, 1 ON switch): -1; higher = weaker reporter binding
Method in brief: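 An oligonucleotide input, 200 uM small-molecule ligand, or no input was present during titration of SNAP-549-labelled MS2 coat protein, which was doubled from 0.7 or 1.5 nM to 3 µM. Designed RNA switches had been transcribed on Illumina chips by stalled E. coli RNA polymerase. Apparent KD per design is the median over clusters of curves fitted to normalised cluster fluorescence.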

[1] = input ligand: microRNA oligo, concentration not stated
[2] = Eterna round: R95, input ligand: FMN 200 uM
[3] = Eterna round: R95, input ligand: microRNA oligo, concentration not stated
[4] = Eterna round: R95, input ligand: none

## UGCUGACAAGGAUAUACAUGAGGAUCACCCAUGUUGGUUCAGCGACGAUAGUCGCAAUGUAGAAGGUGUCAGCA [E3/9-C1] (Eterna round: R97, puzzle: Exclusion 3)
Input ligand: FMN 200 uM
  apparent KD of MS2 coat protein: 135 nM
Input ligand: none
  apparent KD of MS2 coat protein: 236 nM

## GAGUGCUGAGGAUAUACAUGAGGAUCACCCAUGUGCUUCAGCUAGGAGACUAGCAUUCGUAGAAGGCAGUACUC [Mod of lroppy 22 - Jieux - Exclusion 3] (Eterna round: R97, puzzle: Exclusion 3)
Input ligand: FMN 200 uM
  apparent KD of MS2 coat protein: 42.6 nM
Input ligand: none
  apparent KD of MS2 coat protein: 14.7 nM

## AUUUAUAAUGUAGGAUAUGGAUUCGAAACGUAUCCAGAAGGACAUGAGGAUCACCCAUGUACAUGAGGAUCACCCAAUUUAUUA [Fiskers ExNg1 - 10] (Eterna round: R96, puzzle: Exclusion NG 1)
Input ligand: FMN 200 uM
  apparent KD of MS2 coat protein: 98 nM
[1]
  apparent KD of MS2 coat protein: 46.7 nM
Input ligand: none
  apparent KD of MS2 coat protein: 59.3 nM

## GCAAGCUUGUCAAGAUCCCACAUGAGGAUCACCCAUGUGCAUCGUCUGAGCCCAUAGCUAGUCAUCUGCGGGUGCGU [Eternabot (Original) Solution 15] (Eterna round: R97, puzzle: Sensor, turn-off variant 1)
Input ligand: FMN 200 uM
  apparent KD of MS2 coat protein: 40.3 nM
Input ligand: none
  apparent KD of MS2 coat protein: 44.7 nM

## AUCGUGCAGCUUUGCUGUACGAGUACAUGAGGAUCACCCAUGUAGGAUAUGGUACGCUUUGCGUGCUAGAAGGAUAUGUGUUAG [EX ENG3 1.43] (Eterna round: R96, puzzle: Exclusion NG 3)
Input ligand: FMN 200 uM
  apparent KD of MS2 coat protein: 46.6 nM
[1]
  apparent KD of MS2 coat protein: 34.8 nM
Input ligand: none
  apparent KD of MS2 coat protein: 44.2 nM

## ACAUGAGGAUCACCCAUGUCAGGCGGGUCUACUCCGGCUGUUGAGGAUAUAGUUCGGUAUCCGCGCUAGAAGGUGAGGGCCGGC [Aenatbe mod 23] (Eterna round: R96, puzzle: Exclusion NG 3)
Input ligand: FMN 200 uM
  apparent KD of MS2 coat protein: 20.8 nM
[1]
  apparent KD of MS2 coat protein: 14.9 nM
Input ligand: none
  apparent KD of MS2 coat protein: 21.8 nM

## CACGUGUCAGGAUAUAGGACAGAUAUAGUCACAAUCUCUGCCUAGAAGGGACAUGAGGAUCACCCAUGUCUAUA [EX4 C.17] (Eterna round: R97, puzzle: Exclusion 4)
Input ligand: FMN 200 uM
  apparent KD of MS2 coat protein: 27.6 nM
Input ligand: none
  apparent KD of MS2 coat protein: 20.5 nM

## UUUAAGGUAAUUAAGAUCACAUGAGGAUCACCCAUGUAUAUAUAGGAUAUCAGCUCGUUUAGAGCUGAGAAGGAUAUAUACAUA [ExNG3/6-C2] (Eterna round: R96, puzzle: Exclusion NG 3)
Input ligand: FMN 200 uM
  apparent KD of MS2 coat protein: 21.6 nM
[1]
  apparent KD of MS2 coat protein: 178 nM
Input ligand: none
  apparent KD of MS2 coat protein: 136 nM

## AUCAGCUCGUGAGGAUAUAUAUACAUGAGGAUCACCCAUGUAAGAUCAGGCUUCGGCCAAUGUAUAUAGAAGGCACGAGCUGAU [ENG2/11-A3] (Eterna round: R96, puzzle: Exclusion NG 2)
Input ligand: FMN 200 uM
  apparent KD of MS2 coat protein: 403 nM
[1]
  apparent KD of MS2 coat protein: 535 nM
Input ligand: none
  apparent KD of MS2 coat protein: 808 nM

## AGUAACCGUCACGAAAGUGAUGGUUACACAAGCAAAUGUACAUGAGGAUCACCCAUGUCCUCGUUUGCUCGUCUUAU [Sensor 3 - 49] (puzzle: Sensor v3, turn-off variant 2)
[2]
  apparent KD of MS2 coat protein: 26.9 nM
[3]
  apparent KD of MS2 coat protein: 96.7 nM
[4]
  apparent KD of MS2 coat protein: 31.2 nM

## GAUCCACAUGAGGAUCACCCAUGUGAGGAUAUGAUACUAUGUACUUCGGUACAUAGUAUCAGAAGGCACGGGUC [Ex1-3: 55] (puzzle: Exclusion 1)
[3]
  apparent KD of MS2 coat protein: 72.5 nM

## UGAUCAGACCGAGGAUAUAUAUGGAGGACGCACGUGAGUGCGUCCACUACAUGAGGAUCACCCAUGUAGAAGGCGGUCUGAUCU [JL ENG2 1.98] (Eterna round: R96, puzzle: Exclusion NG 2)
Input ligand: FMN 200 uM
  apparent KD of MS2 coat protein: 26.2 nM
[1]
  apparent KD of MS2 coat protein: 9.6 nM
Input ligand: none
  apparent KD of MS2 coat protein: 13.1 nM

## GGUCGUAUGAGUAGUCCUCAUUGAAGAGAUUGGUAAGAUACAUGAGGAUCACCCAUGUUUGAACAAGCUUUUGCUCU [JR_Sv3TOV2_Sub008] (puzzle: Sensor v3, turn-off variant 2)
[2]
  apparent KD of MS2 coat protein: 96 nM
[3]
  apparent KD of MS2 coat protein: 41.9 nM
[4]
  apparent KD of MS2 coat protein: 120 nM
